B1: Advillin, residues 785 to 819; numbered along this chain, O75366 (parent)
chain: LSEQDFVSVFGITRGQFAALPGWKQLQMKKEKGLF

± gives the uncertainty stated by the source.

In this data set the parent is B1. In words: abundance fitness (aPCA) (normalised: wild type 0, dead -1); higher = more abundant; growth selection in yeast, the domain comes from the species named. The conditions noted are these: Homo sapiens.
On to LSEQDFVSTFGITRGQFAALPGWKQLQMKKEKGLF [V9T], for which the abundance fitness was -0.141 ± 0.071.

As to LSEQDFVSRFGITRGQFAALPGWKQLQMKKEKGLF [V9R], the abundance fitness is -0.162 ± 0.056.

As for LSEQDFVSEFGITRGQFAALPGWKQLQMKKEKGLF [V9E], the abundance fitness is -0.149 ± 0.07.

LSEQDFVSYFGITRGQFAALPGWKQLQMKKEKGLF [V9Y]: the abundance fitness is -0.156 ± 0.17.

As to LSEQDFVSMFGITRGQFAALPGWKQLQMKKEKGLF [V9M], the abundance fitness is -0.184 ± 0.093.

As for LSEQDFVSHFGITRGQFAALPGWKQLQMKKEKGLF [V9H], the abundance fitness stood at 0.018 ± 0.11.

With LSEQDFVSWFGITRGQFAALPGWKQLQMKKEKGLF [V9W], the abundance fitness is -0.684 ± 0.11.

In the case of LSEQDFVSPFGITRGQFAALPGWKQLQMKKEKGLF [V9P], the abundance fitness was -0.632 ± 0.093.

For the variant LSEQDFVSKFGITRGQFAALPGWKQLQMKKEKGLF [V9K], the abundance fitness was -0.04 ± 0.075.

Regarding LSEQDFVSDFGITRGQFAALPGWKQLQMKKEKGLF [V9D], the abundance fitness is -0.443 ± 0.17.

In the case of LSEQDFVSSFGITRGQFAALPGWKQLQMKKEKGLF [V9S], the abundance fitness is -0.456 ± 0.096.

Turning to LSEQDFVSCFGITRGQFAALPGWKQLQMKKEKGLF [V9C], the abundance fitness is -0.527 ± 0.15.

As to LSEQDFVSLFGITRGQFAALPGWKQLQMKKEKGLF [V9L], the abundance fitness was -0.131 ± 0.063.

Consider LSEQDFVSGFGITRGQFAALPGWKQLQMKKEKGLF [V9G], for which the abundance fitness was -0.286 ± 0.066.

Take LSEQDFVSFFGITRGQFAALPGWKQLQMKKEKGLF [V9F]: the abundance fitness was -0.422 ± 0.1.

For LSLQDFVSVFGITRGQFAALPGWKQLQMKKEKGLF [E3L], the abundance fitness is -0.304 ± 0.057.

Turning to LSDQDFVSVFGITRGQFAALPGWKQLQMKKEKGLF [E3D], the abundance fitness amounted to 0.103 ± 0.082.

Turning to LSAQDFVSVFGITRGQFAALPGWKQLQMKKEKGLF [E3A], the abundance fitness was -0.258 ± 0.052.

Consider LSMQDFVSVFGITRGQFAALPGWKQLQMKKEKGLF [E3M], for which the abundance fitness was -0.461 ± 0.13.

Consider LSPQDFVSVFGITRGQFAALPGWKQLQMKKEKGLF [E3P], for which the abundance fitness is -0.268 ± 0.18.

For LSYQDFVSVFGITRGQFAALPGWKQLQMKKEKGLF [E3Y], the abundance fitness was -0.543 ± 0.15.

As to LSRQDFVSVFGITRGQFAALPGWKQLQMKKEKGLF [E3R], the abundance fitness is -0.476 ± 0.063.

As to LSKQDFVSVFGITRGQFAALPGWKQLQMKKEKGLF [E3K], the abundance fitness was -0.409 ± 0.16.

As to LSTQDFVSVFGITRGQFAALPGWKQLQMKKEKGLF [E3T], the abundance fitness is -0.092 ± 0.085.

Consider LSHQDFVSVFGITRGQFAALPGWKQLQMKKEKGLF [E3H], for which the abundance fitness is -0.323 ± 0.12.

With LSCQDFVSVFGITRGQFAALPGWKQLQMKKEKGLF [E3C], the abundance fitness is -0.421 ± 0.087.

Consider LSQQDFVSVFGITRGQFAALPGWKQLQMKKEKGLF [E3Q], for which the abundance fitness was -0.225 ± 0.091.

Take LSWQDFVSVFGITRGQFAALPGWKQLQMKKEKGLF [E3W]: the abundance fitness is -0.4 ± 0.091.

Turning to LSNQDFVSVFGITRGQFAALPGWKQLQMKKEKGLF [E3N], the abundance fitness is 0.165 ± 0.12.

LSFQDFVSVFGITRGQFAALPGWKQLQMKKEKGLF [E3F]: the abundance fitness was -0.039 ± 0.14.

For the variant LSSQDFVSVFGITRGQFAALPGWKQLQMKKEKGLF [E3S], the abundance fitness was -0.183 ± 0.11.

LSGQDFVSVFGITRGQFAALPGWKQLQMKKEKGLF [E3G]: the abundance fitness was -0.366 ± 0.061.

For the variant LSIQDFVSVFGITRGQFAALPGWKQLQMKKEKGLF [E3I], the abundance fitness is -0.175 ± 0.22.

For the variant LDEQDFVSVFGITRGQFAALPGWKQLQMKKEKGLF [S2D], the abundance fitness is 0.311 ± 0.23.

Consider LQEQDFVSVFGITRGQFAALPGWKQLQMKKEKGLF [S2Q], for which the abundance fitness was -0.416 ± 0.1.

LLEQDFVSVFGITRGQFAALPGWKQLQMKKEKGLF [S2L]: the abundance fitness is -0.123 ± 0.071.

Take LTEQDFVSVFGITRGQFAALPGWKQLQMKKEKGLF [S2T]: the abundance fitness was -0.289 ± 0.11.

Take LVEQDFVSVFGITRGQFAALPGWKQLQMKKEKGLF [S2V]: the abundance fitness was -0.322 ± 0.083.

With LYEQDFVSVFGITRGQFAALPGWKQLQMKKEKGLF [S2Y], the abundance fitness was -0.505 ± 0.15.

Consider LWEQDFVSVFGITRGQFAALPGWKQLQMKKEKGLF [S2W], for which the abundance fitness is -0.305 ± 0.069.

Take LREQDFVSVFGITRGQFAALPGWKQLQMKKEKGLF [S2R]: the abundance fitness is -0.282 ± 0.057.

As for LMEQDFVSVFGITRGQFAALPGWKQLQMKKEKGLF [S2M], the abundance fitness is -0.514 ± 0.11.

Consider LGEQDFVSVFGITRGQFAALPGWKQLQMKKEKGLF [S2G], for which the abundance fitness was -0.078 ± 0.056.

On to LCEQDFVSVFGITRGQFAALPGWKQLQMKKEKGLF [S2C], for which the abundance fitness is -0.175 ± 0.087.

As for LPEQDFVSVFGITRGQFAALPGWKQLQMKKEKGLF [S2P], the abundance fitness is -0.584 ± 0.22.

With LEEQDFVSVFGITRGQFAALPGWKQLQMKKEKGLF [S2E], the abundance fitness is -0.085 ± 0.067.

Take LKEQDFVSVFGITRGQFAALPGWKQLQMKKEKGLF [S2K]: the abundance fitness was -0.127 ± 0.077.

For the variant LSEQDFVRVFGITRGQFAALPGWKQLQMKKEKGLF [S8R], the abundance fitness is 0.023 ± 0.069.

Turning to LSEQDFVPVFGITRGQFAALPGWKQLQMKKEKGLF [S8P], the abundance fitness was -0.506 ± 0.24.

For the variant LSEQDFVVVFGITRGQFAALPGWKQLQMKKEKGLF [S8V], the abundance fitness is -0.117 ± 0.088.

As to LSEQDFVDVFGITRGQFAALPGWKQLQMKKEKGLF [S8D], the abundance fitness was -0.081 ± 0.082.

LSEQDFVTVFGITRGQFAALPGWKQLQMKKEKGLF [S8T]: the abundance fitness was -0.024 ± 0.068.

For LSEQDFVLVFGITRGQFAALPGWKQLQMKKEKGLF [S8L], the abundance fitness is -0.238 ± 0.083.

In the case of LSEQDFVWVFGITRGQFAALPGWKQLQMKKEKGLF [S8W], the abundance fitness is -0.439 ± 0.11.

On to LSEQDFVGVFGITRGQFAALPGWKQLQMKKEKGLF [S8G], for which the abundance fitness is -0.026 ± 0.058.

Take LSEQDFVNVFGITRGQFAALPGWKQLQMKKEKGLF [S8N]: the abundance fitness was -0.329 ± 0.2.

In the case of LSEQDFVFVFGITRGQFAALPGWKQLQMKKEKGLF [S8F], the abundance fitness is -0.476 ± 0.18.

On to LSEQDFVAVFGITRGQFAALPGWKQLQMKKEKGLF [S8A], for which the abundance fitness amounted to 0.052 ± 0.078.

With LSEQDFVYVFGITRGQFAALPGWKQLQMKKEKGLF [S8Y], the abundance fitness was -0.84 ± 0.26.

LSEQDFVKVFGITRGQFAALPGWKQLQMKKEKGLF [S8K]: the abundance fitness came to 0.156 ± 0.066.

For LSEQDFVEVFGITRGQFAALPGWKQLQMKKEKGLF [S8E], the abundance fitness came to 0.119 ± 0.063.

LSEQDFVMVFGITRGQFAALPGWKQLQMKKEKGLF [S8M]: the abundance fitness was determined as 0.003 ± 0.088.

Regarding CSEQDFVSVFGITRGQFAALPGWKQLQMKKEKGLF [L1C], the abundance fitness was -0.279 ± 0.15.

As to KSEQDFVSVFGITRGQFAALPGWKQLQMKKEKGLF [L1K], the abundance fitness was -0.266 ± 0.076.

Consider WSEQDFVSVFGITRGQFAALPGWKQLQMKKEKGLF [L1W], for which the abundance fitness was -0.079 ± 0.059.

For the variant SSEQDFVSVFGITRGQFAALPGWKQLQMKKEKGLF [L1S], the abundance fitness is -0.135 ± 0.084.

Consider NSEQDFVSVFGITRGQFAALPGWKQLQMKKEKGLF [L1N], for which the abundance fitness was -0.078 ± 0.13.

ESEQDFVSVFGITRGQFAALPGWKQLQMKKEKGLF [L1E]: the abundance fitness was 0.694 ± 0.2.

For the variant RSEQDFVSVFGITRGQFAALPGWKQLQMKKEKGLF [L1R], the abundance fitness is -0.156 ± 0.08.

As for GSEQDFVSVFGITRGQFAALPGWKQLQMKKEKGLF [L1G], the abundance fitness was -0.051 ± 0.073.

Source of the values: the Human Domainome abundance scans (Beltran et al. 2025).
